Our source for the Km and kcat values is PMC5585873.

The test system of data set [1] is CCCCCCOS(=O)(=O)O. Put plainly: purified protein. As to conditions: 10 mM tris-HCl, pH 7.4, 25 °C, 0.16 μM enzyme.
Substrate in data set [2]: CCCCCCOS(=O)(=O)O
Put plainly: LC-MS of substrate depletion, hyperbolic fit. It is filed as biochemical, Saccharomyces cerevisiae. The conditions noted are these: 10 mM tris-HCl, pH 7.4, 25 °C, 1.0 μM enzyme.

As for SdsA1 (Pseudomonas aeruginosa PAO1), in data set [1], the Km stood at 110 ± 17 µM and the catalytic constant (kcat) was determined as 64 ± 27 min⁻¹.

B1: Bds1 (Saccharomyces cerevisiae S288C) (protein)
chain: MIGAFKRNRGSSQSFAKECQPSTLKANLEVAKELPFSDRRDFEDATQGYIGSLSDEQIIGPDGGVVWCMKSYGFLEPETPANTVNPSLWRQAQLNAIHGLFKITDNVYQVRGLDISNMTIIEGNTSLIIIDTLFTTETAQESLKLYYRHRPQKPVRTVIYTHSHSDHYGGVKGIVKEADVKSGEVQIIAPVGFMESVVAENILAGNAMHRRSQYQFGMLLSPSVKGHVDCGIGKAASHGTVTLIAPTIIIEEPVEERTIDGVDFVFQLAPGSEAPSEMLIYMPQQRVLNMAEDVTHHMHNLYALRGVEVRDGNQWAKYIDAARVAFGSKTDVLIAQHHWPTTGQMRINELLKKQRDMYKFIHDQTLRLLNQGYTSRDIAETLRMPSSLEQEWSTRGYYGTLSHNVKAVYQKYLGWYDANPANLNPLPPVAYAKKAVEYMGGADAVLARAYKDFQKGEFRWVASVVNQLVFADPNNHQARELCADALEQLGYQAEASTWRNAYLVGAMELRQGVPKRRSTGKRNNIAVLNNEMFFDFLAVRLNATKAEGKIIVSNWCFINSNERFVITLENCALTYIQGWQTDADATITLKRTTFEALLANEITMVDFLRSKEVEIEGNRLRIEELLKLFDDFDQSFPVVEPMGGST
Regarding B1, in data set [2], the Michaelis constant (Km) worked out at 300 ± 115 µM and the kcat turned out to be 0.4 ± 0.1 min⁻¹.
